Assay results: patent US20210140973A1 (NITTO BOSEKI, published 2021)

Key:
[1] = biological target: Myeloma human IgA1 (Abcam) (human, UniProt P01876-1 1-353); experiment: indirect ELISA, antigen coated 1 µg/mL, antibody 1 µg/mL; no-antigen well 0.048
Experimental: (§1) Myeloma human IgA1 (Abcam), Myeloma human IgA2 (Abcam), Myeloma human IgD (Abcam), Myeloma human IgE (Abcam), Myeloma human IgM (Abcam), Myeloma human IgG1 (EMD Millipore), Myeloma human IgG2 (EMD Millipore), Myeloma human IgG3 (Sigma-Aldrich Co. LLC), and Myeloma human IgG4 (EMD Millipore) were adjusted to 1 μg/mL with PBS(−). The adjusted samples were added to a 96-well plate (Thermo Fisher Scientific) by 100 μL, respectively. The plate was shaken by a shaker under the condition of 700 rpm and 25.0° C. for 1 hour. The solutions were discarded, the plate was cleaned with 300 μL of PBST 3 times, 100 μL of a blocking buffer solution was added to each well, and then the plate was stored at 4° C. one night or more. Similarly, after cleaning with PBST, the MaI4-08 and MaI4-09-produced antibodies were adjusted to 1 μg/mL with an antibody dilute buffer solution and then added to each well by 100 μL, and the plate was shaken under the same condition as mentioned above. Similarly, after cleaning with PBST, a HRP labeled anti-mouse IgG antibody (Abcam) diluted 4000-fold with an antibody dilute buffer solution was added to each well by 100 μL, and the plate was shaken under the same condition as mentioned above. Similarly, after cleaning with PBST, 100 μL of SureBlue (KPL) was added. 5 or 3 minutes later, 100 μL of 0.5 mol/L sulfuric acid (Wako Pure Chemical Corporation) was added to each of MaI4-08 and MaI4-09. Absorbance at a wavelength of 450 nm was measured with a microplate reader (BIO-RAD Laboratories, Inc.). As a result, a strong signal was given to Myeloma human IgG4 as compared to the other samples (Tables 2 and 3, and FIGS. 2 and 3).

[2] = biological target: Myeloma human IgA2 (Abcam) (human, UniProt P01877-1 1-340); experiment: as above
Experimental: as §1

[3] = biological target: Myeloma human IgD (Abcam) (human, UniProt P01880-1 1-384); experiment: as above
Experimental: as §1

[4] = biological target: Myeloma human IgE (Abcam) (human, UniProt P01854-1 1-428); experiment: as above
Experimental: as §1

[5] = biological target: Myeloma human IgM (Abcam) (human, UniProt P01871-1 1-453); experiment: as above
Experimental: as §1

[6] = biological target: T1, Myeloma human IgG2 (EMD Millipore) (human); experiment: as above
T1 construct: Bought myeloma protein
Experimental: as §1

[7] = biological target: T2, Myeloma human IgG3 (Sigma-Aldrich Co. LLC) (human); experiment: as above
T2 construct: Bought myeloma protein
Experimental: as §1

[8] = biological target: T3, GST-tagged peptide H2 (positions 1 to 274 of the human IgG4 heavy chain constant region) (human, UniProt P01861 1-274 = IgG part); experiment: Western blot: E. coli lysate with the GST-tagged peptide, SDS-PAGE, PVDF membrane, POD-labelled antibody diluted 1000-fold, ECL
T3 construct: E. coli lysate on Western blot; not shown: GST tag (glutathione S-transferase) linked to the N terminal, expressed from vector pGEX-6P-1
Experimental: (§2) Based on the designed amino acid sequences, base sequences suitable for expressing protein in E. coli were designed according to the protocol of GenScript Corporation, thereby preparing vector pGEX-6P-1 (GE Healthcare Bio-Sciences Corp.) to which the respective base sequences are inserted. The prepared expression plasmid was introduced to E. coli BL 21 strain, thereby obtaining a transformant. The transformant was cultured by an ordinary method and a protein expression was induced by IPTG. After the cells were collected by centrifugation, the cells were dissolved with an ordinary lysis solution, and subjected to ultrasonication. 6 μL of an SDS sample buffer solution was added to 6 μL of the obtained lysate. The respective prepared samples were subjected to a heat treatment at 95° C. for 5 minutes. 10 μL of the E. coli disrupted sample was added to each well of 5 to 20% electrophoresis gel (Atto Corportation) to which an SDS electrophoresis buffer solution was added. Similarly, a molecular weight standard (Bio-Rad Laboratories, Inc.) was added to each well and electrophoresed. After completing the electrophoresis, the electrophoresis gel was transcribed to a PVDF membrane (Millipore Corporation) with a transfer buffer solution. The PVDF membrane was immersed in a membrane blocking buffer solution, and then shaking was carried out at room temperature for 30 minutes. Amino groups of MaI4-08, MaI4-09, and MaI4-05-produced antibodies were subjected to a POD labeling treatment with a POD labeling kit (Dojindo Molecular Technologies, Inc.). The obtained labeled antibodies each were diluted 1000-fold by PBST. After the PVDF membrane was cleaned with PBST, the antibody solutions prepared each were added to the PVDF membrane, and then the reaction was performed at room temperature for 1 hour. After the PVDF membrane was cleaned by PBST, a signal was detected with ECL Prime Western Blotting Detection Reagents (GE Healthcare) with Image Quant Las4000.

[9] = biological target: T4, GST-tagged peptide H3 (positions 1 to 220 of the human IgG4 heavy chain constant region) (human, UniProt P01861 1-220 = IgG part); experiment: as above
T4 construct: E. coli lysate on Western blot; not shown: GST tag (glutathione S-transferase) linked to the N terminal, expressed from vector pGEX-6P-1
Experimental: as §2

[10] = biological target: T5, GST-tagged peptide H4 (positions 1 to 165 of the human IgG4 heavy chain constant region) (human, UniProt P01861 1-165 = IgG part); experiment: as above
T5 construct: E. coli lysate on Western blot; not shown: GST tag (glutathione S-transferase) linked to the N terminal, expressed from vector pGEX-6P-1
Experimental: as §2

[11] = biological target: T6, GST-tagged peptide H5 (positions 1 to 110 of the human IgG4 heavy chain constant region) (human, UniProt P01861 1-110 = IgG part); experiment: as above
T6 construct: E. coli lysate on Western blot; not shown: GST tag (glutathione S-transferase) linked to the N terminal, expressed from vector pGEX-6P-1
Experimental: as §2

[12] = biological target: T7, GST-tagged peptide H6 (positions 1 to 55 of the human IgG4 heavy chain constant region) (human, UniProt P01859 1-55 = IgG part); experiment: as above
T7 construct: E. coli lysate on Western blot; not shown: GST tag (glutathione S-transferase) linked to the N terminal, expressed from vector pGEX-6P-1
Experimental: as §2

[13] = biological target: T8, GST-tagged peptide H11 (positions 275 to 327 of the human IgG4 heavy chain constant region) (human, UniProt P01861 275-325 = IgG part); experiment: as above
T8 construct: E. coli lysate on Western blot; not shown: GST tag (glutathione S-transferase) linked to the N terminal, expressed from vector pGEX-6P-1
Experimental: as §2

[14] = biological target: T9, GST-tagged peptide H12 (positions 99 to 220 of the human IgG4 heavy chain constant region) (human, UniProt P01861 99-220 = IgG part); experiment: as above
T9 construct: E. coli lysate on Western blot; not shown: GST tag (glutathione S-transferase) linked to the N terminal, expressed from vector pGEX-6P-1
Experimental: as §2

Myeloma human IgM (Abcam), sequence (P01871 other isoform, or with tags, fused parts or gaps): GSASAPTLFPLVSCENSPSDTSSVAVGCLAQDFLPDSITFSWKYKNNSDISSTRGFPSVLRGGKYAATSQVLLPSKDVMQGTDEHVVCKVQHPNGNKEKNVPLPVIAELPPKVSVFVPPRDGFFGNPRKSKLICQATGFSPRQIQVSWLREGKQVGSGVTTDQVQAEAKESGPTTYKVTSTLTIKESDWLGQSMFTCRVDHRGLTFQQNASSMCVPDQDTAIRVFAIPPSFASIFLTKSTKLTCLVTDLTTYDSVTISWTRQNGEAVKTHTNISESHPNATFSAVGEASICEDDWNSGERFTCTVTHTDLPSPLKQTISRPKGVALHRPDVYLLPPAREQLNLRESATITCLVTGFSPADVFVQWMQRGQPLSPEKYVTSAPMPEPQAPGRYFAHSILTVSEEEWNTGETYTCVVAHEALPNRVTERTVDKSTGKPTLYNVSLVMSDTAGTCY
T3 sequence (P01861 1-274): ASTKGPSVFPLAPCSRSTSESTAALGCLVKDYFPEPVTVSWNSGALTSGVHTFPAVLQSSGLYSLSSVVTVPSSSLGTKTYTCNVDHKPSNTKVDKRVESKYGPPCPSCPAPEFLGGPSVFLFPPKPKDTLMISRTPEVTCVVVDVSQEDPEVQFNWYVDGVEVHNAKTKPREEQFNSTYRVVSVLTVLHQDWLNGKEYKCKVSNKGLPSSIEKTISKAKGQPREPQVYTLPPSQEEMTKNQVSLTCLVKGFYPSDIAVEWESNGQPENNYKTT
T9 sequence (P01861 99-220): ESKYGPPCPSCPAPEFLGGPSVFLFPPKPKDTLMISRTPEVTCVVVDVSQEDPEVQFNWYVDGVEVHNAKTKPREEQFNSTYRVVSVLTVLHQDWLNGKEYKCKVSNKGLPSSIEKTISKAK
T5 sequence (P01861 1-165): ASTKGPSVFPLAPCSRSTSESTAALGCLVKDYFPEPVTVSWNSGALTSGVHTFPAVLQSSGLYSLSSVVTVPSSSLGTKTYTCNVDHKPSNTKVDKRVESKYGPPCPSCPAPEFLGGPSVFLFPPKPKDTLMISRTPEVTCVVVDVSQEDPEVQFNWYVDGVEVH
Myeloma human IgA2 (Abcam), sequence (P01877 other isoform, or with tags, fused parts or gaps): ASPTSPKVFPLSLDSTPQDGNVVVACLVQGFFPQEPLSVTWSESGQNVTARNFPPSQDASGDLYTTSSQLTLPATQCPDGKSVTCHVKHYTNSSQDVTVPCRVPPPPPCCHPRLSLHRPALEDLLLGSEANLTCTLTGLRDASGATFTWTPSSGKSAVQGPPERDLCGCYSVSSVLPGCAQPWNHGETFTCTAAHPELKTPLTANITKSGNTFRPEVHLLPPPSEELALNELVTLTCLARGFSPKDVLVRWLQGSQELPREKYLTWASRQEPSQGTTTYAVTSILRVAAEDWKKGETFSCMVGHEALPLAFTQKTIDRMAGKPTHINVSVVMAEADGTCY
Myeloma human IgD (Abcam), sequence (P01880 other isoform, or with tags, fused parts or gaps): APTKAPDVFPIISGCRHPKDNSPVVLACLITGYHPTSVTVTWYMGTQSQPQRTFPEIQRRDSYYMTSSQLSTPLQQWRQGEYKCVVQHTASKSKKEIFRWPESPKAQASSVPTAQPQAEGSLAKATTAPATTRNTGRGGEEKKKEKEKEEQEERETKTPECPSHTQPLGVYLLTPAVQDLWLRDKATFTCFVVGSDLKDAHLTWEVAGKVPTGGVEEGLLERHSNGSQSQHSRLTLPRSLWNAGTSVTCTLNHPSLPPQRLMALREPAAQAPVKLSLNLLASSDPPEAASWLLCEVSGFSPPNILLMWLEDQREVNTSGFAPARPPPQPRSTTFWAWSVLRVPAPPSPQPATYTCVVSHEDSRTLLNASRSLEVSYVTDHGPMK
Myeloma human IgA1 (Abcam), sequence (P01876 other isoform, or with tags, fused parts or gaps): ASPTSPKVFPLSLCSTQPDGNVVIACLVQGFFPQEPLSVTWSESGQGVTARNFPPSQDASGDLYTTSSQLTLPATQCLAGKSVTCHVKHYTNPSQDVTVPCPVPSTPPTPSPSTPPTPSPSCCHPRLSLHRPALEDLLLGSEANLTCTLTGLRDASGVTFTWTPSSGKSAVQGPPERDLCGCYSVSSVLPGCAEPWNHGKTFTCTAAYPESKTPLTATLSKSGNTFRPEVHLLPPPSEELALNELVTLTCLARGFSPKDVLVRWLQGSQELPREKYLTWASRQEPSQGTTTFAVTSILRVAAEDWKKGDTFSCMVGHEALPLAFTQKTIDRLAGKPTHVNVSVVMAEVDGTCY
T4 sequence (P01861 1-220): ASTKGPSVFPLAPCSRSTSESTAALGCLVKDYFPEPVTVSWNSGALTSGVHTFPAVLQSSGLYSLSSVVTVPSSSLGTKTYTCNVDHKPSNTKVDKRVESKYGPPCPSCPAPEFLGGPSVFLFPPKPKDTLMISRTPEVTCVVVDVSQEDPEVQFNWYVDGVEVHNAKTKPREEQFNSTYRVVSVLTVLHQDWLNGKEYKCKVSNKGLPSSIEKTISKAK
Myeloma human IgE (Abcam), sequence (P01854 other isoform, or with tags, fused parts or gaps): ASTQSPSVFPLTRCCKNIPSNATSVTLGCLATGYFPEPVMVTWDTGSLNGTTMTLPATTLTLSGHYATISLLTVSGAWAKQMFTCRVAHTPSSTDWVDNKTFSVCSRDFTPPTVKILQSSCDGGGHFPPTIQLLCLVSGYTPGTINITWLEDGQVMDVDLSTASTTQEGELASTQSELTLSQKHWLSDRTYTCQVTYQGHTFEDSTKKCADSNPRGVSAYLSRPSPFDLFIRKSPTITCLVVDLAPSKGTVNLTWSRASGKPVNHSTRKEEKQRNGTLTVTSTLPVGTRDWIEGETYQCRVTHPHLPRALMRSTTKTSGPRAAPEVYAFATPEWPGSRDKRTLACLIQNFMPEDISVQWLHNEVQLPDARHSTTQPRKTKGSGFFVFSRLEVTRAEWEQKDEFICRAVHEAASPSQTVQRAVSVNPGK
T2 sequence (constant, as listed by the source limits assumed): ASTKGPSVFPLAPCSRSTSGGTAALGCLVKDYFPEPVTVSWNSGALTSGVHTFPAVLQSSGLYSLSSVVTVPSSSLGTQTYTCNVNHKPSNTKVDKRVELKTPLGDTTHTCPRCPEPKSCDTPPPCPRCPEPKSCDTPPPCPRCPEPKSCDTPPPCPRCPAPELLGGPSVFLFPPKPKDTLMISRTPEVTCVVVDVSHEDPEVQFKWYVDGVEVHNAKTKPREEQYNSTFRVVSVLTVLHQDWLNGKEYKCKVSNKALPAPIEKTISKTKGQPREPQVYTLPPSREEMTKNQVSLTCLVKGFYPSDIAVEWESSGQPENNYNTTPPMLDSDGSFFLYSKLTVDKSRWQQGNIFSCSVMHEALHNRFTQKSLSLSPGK
T7 sequence (P01859 1-55): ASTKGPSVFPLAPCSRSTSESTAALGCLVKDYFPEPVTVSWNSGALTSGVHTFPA
T1 sequence (constant, as listed by the source limits assumed): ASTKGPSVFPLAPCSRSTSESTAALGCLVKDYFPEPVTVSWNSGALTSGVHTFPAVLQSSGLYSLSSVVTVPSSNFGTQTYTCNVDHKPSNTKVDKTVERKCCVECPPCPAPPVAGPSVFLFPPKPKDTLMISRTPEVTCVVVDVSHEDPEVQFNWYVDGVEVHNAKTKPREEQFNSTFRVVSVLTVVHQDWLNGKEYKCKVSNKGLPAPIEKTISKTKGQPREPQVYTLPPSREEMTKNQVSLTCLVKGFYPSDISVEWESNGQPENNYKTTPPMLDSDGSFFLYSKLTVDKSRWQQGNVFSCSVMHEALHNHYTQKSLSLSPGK
T8 sequence (P01861 other isoform, or with tags, fused parts or gaps): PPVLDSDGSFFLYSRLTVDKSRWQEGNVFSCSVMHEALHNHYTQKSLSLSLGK
T6 sequence (P01861 1-110): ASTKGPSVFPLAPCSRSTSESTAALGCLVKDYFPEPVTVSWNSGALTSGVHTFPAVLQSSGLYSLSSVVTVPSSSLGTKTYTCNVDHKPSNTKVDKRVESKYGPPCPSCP

B1: MaI4-09-produced antibody (antibody, IgG1, V domains shown)
VH: EVQLQQSGPELVKPGASVKMSCKASGYTFTSSVMHWMKQKPGQGLEWIGYINPYNDGTRYNEKFQGKATLTSDKSSNTAYMELSSLTSEDSAVYYCTRSFYYGNSHVLFAYWGQGTLVTVSA
VL: DIKMTQSPSSIYPSLGERVTITCKASQDINSYLSWFQQKPGKSPKTLIYRANRLVDGVPSRFSGSGSGQDYSLTISSLEYEDMGIYHCLQYDELPYTFGGGTTLEIK
notes: Purified on protein G from hybridoma culture supernatant; POD-labelled for the Western blots
With B1 the “absorbance at 450 nm” value [1] was 0.058, the “absorbance at 450 nm” value [2] was 0.05 and the “absorbance at 450 nm” value [3] was 0.051. For the same binder, the “absorbance at 450 nm” value [4] was 0.05, the “absorbance at 450 nm” value [5] was 0.055 and the “absorbance at 450 nm” value [6] was 0.064. The “absorbance at 450 nm” value [7] was 0.052, the binding result [8] was “no binding” and the binding result [9] was “no binding”. B1: no binding [10]; no binding [11]; no binding [12]. B1: no binding [13]; no binding [14].
